From US20140170144A1 (CELLMID, published 2014) come the findings set out here.

The assay addresses T1, recombinant human midkine (MK17) (Homo sapiens, UniProt P21741 23-143).
T1 construct: The signal is left out; It gives a molecular weight of 13.4 kDa; also called human MK; MK17 protein
T1 sequence: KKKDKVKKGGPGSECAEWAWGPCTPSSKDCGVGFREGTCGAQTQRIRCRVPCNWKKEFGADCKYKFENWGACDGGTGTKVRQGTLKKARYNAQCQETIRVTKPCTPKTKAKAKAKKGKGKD
As to the kind of experiment: SPR (Biacore), antibody amine coupled to CM-4 chip, midkine 0-20 nM as analyte. How it is done:
Antibody IP-13 (2.85 mg/ml) was diluted to 5.7 μg/ml in Biacore acetate pH 4.5 buffer and amine coupled to of flow cell (FC) #3 of a CM-4 chip. Approximately 750 units were aimed to be immobilized onto Flow cells (FC) #3 of the CM-4 chip; and FC#1 was blocked using EDC/NHS followed by ethanolamine and was used as reference during the study.
Recombinant human midkine was diluted to 15 μM (1 μl of 10 mg/ml in 50 μl of HBS-EP buffer, the calculation was based on molecular weight of 13.4 kDa). Various dilutions of human midkine using HBS-EP buffer were prepared (0, 1, 2, 3, 4, 5, 10 and 20 nM).
(In general: SPR reads the build-up and loss of mass on a sensor chip optically.)

B1: monoclonal antibody IP-13 (antibody, V domains shown)
VH: EVQLQQSGPELVKPGASVKIPCKASGYTFTDYNMGWVKQSHGKSLEWIGDINPNNGGTIYNQKFKGKATLTVDKSSSTAYMELRSLTSEDTAVYYCARWSYSNPYFDYWGQGTTLTVSS
VL: SIVMTQTPNFLLVSAGDRVTITCKASQSVSNDVSWYQQKPGQSPKLLIYYASNLYTGVPDRFTGSGYGTDFTFTISTVQAEDLAVYFCQQDYSSPWTFGGGTKLEIK
notes: also called mAb IP-13
What is called Kd is the free concentration of one partner at which half of the binding sites on the other are occupied at equilibrium, for simple one-to-one binding. A word on the koff: it is the rate constant with which the complex falls apart. As usually defined, the kon is the rate constant with which the complex forms. Turning to B1, the Ka is 5e+08 M⁻¹, the Kd is 2.02 nM, the koff worked out at 0.0028 s⁻¹ and the kon turned out to be 1.4e+06 M⁻¹ s⁻¹.
